T1: KCNQ1 channel peptide (AEKDAVNESGRVEFGSYADA) (human)
T1 construct: Coupled to KLH for immunisation; the free peptide (2.12 kDa) was the analyte in SPR; also called KCNQ1 peptide; antigenic peptide
T1 peptide: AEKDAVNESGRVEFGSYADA

T2: human KCNQ1 (expressed together with KCNE1 as a separate chain; IKs channel) (human, UniProt P51787 1-676)
T2 sequence: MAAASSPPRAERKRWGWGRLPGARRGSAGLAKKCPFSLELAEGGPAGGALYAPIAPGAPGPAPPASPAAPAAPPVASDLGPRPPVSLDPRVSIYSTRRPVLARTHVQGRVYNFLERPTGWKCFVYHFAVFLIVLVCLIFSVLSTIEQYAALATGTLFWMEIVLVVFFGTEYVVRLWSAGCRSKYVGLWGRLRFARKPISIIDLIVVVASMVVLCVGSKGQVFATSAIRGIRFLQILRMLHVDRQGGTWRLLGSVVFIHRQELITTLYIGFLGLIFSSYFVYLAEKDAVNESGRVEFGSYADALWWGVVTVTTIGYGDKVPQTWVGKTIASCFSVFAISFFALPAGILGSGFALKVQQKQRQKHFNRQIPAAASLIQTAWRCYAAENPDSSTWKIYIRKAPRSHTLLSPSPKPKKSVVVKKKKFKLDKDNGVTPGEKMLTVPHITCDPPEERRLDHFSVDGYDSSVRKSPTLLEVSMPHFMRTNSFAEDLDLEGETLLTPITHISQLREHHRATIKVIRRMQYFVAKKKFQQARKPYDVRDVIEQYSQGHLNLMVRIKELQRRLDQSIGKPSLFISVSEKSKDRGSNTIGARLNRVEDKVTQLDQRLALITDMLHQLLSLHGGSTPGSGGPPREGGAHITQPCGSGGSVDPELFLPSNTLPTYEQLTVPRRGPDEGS

T3: N-terminally biotinylated KCNQ1 peptide (Nterm-Biotin-(CH2O)4-AEKDAVNESGRVEFGSYADA-Cterm) (human, N-terminal Biotin-(CH2O)4-)
T3 construct: Immobilised on streptavidin biosensor tips for Octet BLI
T3 peptide: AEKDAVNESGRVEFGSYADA

B1: IgG2a 8-F11-D4 monoclonal antibody (antibody, V domains shown)
VH: EVKLVESGGGLVKPGGSLQLSCAASGFTFSNYAMSWVRQTPEKRLEWVASISGGGNTYYPDSVKGRFTISRDNARNILYLQMNSLRSEDTAMYYCVRATRDYFDYWGQGTTLTVSS
VL: DIVMSQSPSSLAVSVGEKVTMSCKSSQSLLNSRTRKSYLAWYQQKPGQSPKLLIYWASTRESGVPDRFTGSGSGTDFTLTISSVQAEDLAVYSCEQSYYLYTFGGGTKLEIK
notes: also called mouse monoclonal IgG2a 8-F11-D4; murine monoclonal anti-KCNQ1 antibody IgG2a 8-F11-D4
B2: recombinant murine IgG2a 8-F11-D4 antibody (antibody, V domains shown)
VH: B1 VH
VL: B1 VL

Tests used:
[1] = biological target: T1, KCNQ1 channel peptide …; assay: SPR (Biacore 8K), antibody immobilised on CM5 chip, peptide as analyte, mean of triplicate
Experimental: Antibody kinetics and affinity measurement: A Biacore 8K Surface Plasmon Resonance (SPR) instrument (GE Healthcare Life Sciences, ProteoGenix, France) equipped with a CM5 sensor chip was used to generate binding kinetic rate and affinity constants at room temperature. IgG2a 8-F11-D4 (10 μg/ml) was immobilized onto the CM5 chip by amide coupling, following manufacturer's protocol. The surface chemistry was activated using 1-Ethyl-3-(3-dimethylaminopropyl) carbodiimide hydrochloride (EDC) and sulfo-N-Hydroxysuccinimide (NHS) reagents prior to immobilization, while ethanolamine was used to deactivate remaining active esters. Samples were prepared in HBS-EP⁺ buffer composed of 10 mM HEPES (pH 7.4), 150 mM NaCl, 3 mM EDTA, 0.05% Surfactant P20. The antigenic peptide was suspended in 20 mM sodium acetate (pH 4.5) and glycine-HCl (pH 1.5) was used as regeneration buffer. […] This level was considered optimal based upon the calculation of the maximal response (Rₘₐₓ) of analyte (antigenic peptide) to ligand (IgG2a): Rₘₐₓ=(MWanalyte/MWligand)×RL×Sₘ, where MWanalyte and MWligand are the molecular weights of the peptide (analyte, 2.12 kDa) to the antibody (ligand, 180 kDa as determined by SDS-PAGE), respectively, RL is the target amount of ligand bound in RU, and Sₘ represents the stoichiometric ratio of the analyte/ligand interaction (Sₘ equals 1). A theoretical Rₘₐₓ of […] is achieved at 10′000 RU of ligand. […] Injections were performed in triplicate to assess for the assay's reproducibility. All data were processed and analyzed with Biacore 8K Evaluation Software.

[2] = biological target: T2, human KCNQ1 (expressed together with …); assay: cell-based or functional assay
[3] = biological target: T3, N-terminally biotinylated KCNQ1 peptide …; assay: bio-layer interferometry (Octet RED96), biotinylated KCNQ1 peptide on streptavidin tips, 1:1 model, mean of duplicate runs
Experimental: (§1) FIG. 16. Kinetic measurements of mAb binding to 20aa KCNQ1 target sequence.
(§2) Binding kinetics of KCNQ1 peptide interactions with IgG2a 8-F11-D4 was monitored using Octet RED96 Bio-Layer Interferometry (Sartorius). All measurements were performed in duplicate at 25° C. in an assay-specific buffer containing 1× PBS pH 7.4, 1× kinetic buffer and 1% BSA using 96-well plates with orbital shake speed of 1,000 rpm. The binding curves were generated by first immobilizing 1 mM N-terminally biotinylated KCNQ1 peptide on streptavidin-coated biosensor tips for 2.5 min followed by a baseline equilibration step for 5 min. The biosensor tips were then submerged in wells containing […] mAbs for 5 min to monitor formation of the mAb-peptide complex, followed by antibody dissociation in the assay buffer for 5 minutes. A shift in the interference pattern of white light reflected from the surface of a biosensor tip caused by antibody binding/dissociation was monitored in real time. Antibody-peptide interactions were analyzed by a 1:1 binding model and the dissociation constants (KDs) were determined as ratios of dissociation (koff) and association (kon) binding rate constants derived using non-linear fitting model in GraphPad Prism.

[4] = biological target: T3, N-terminally biotinylated KCNQ1 peptide …; assay: BLI (Octet RED96), biotinylated peptide on streptavidin tips, antibody in solution, 1:1 model, duplicate
Experimental: as §1, §2

Binder | Kd [1] | koff [1] | kon [1] | half-maximal effective concentration (EC50) of APD90 reduction in hiPSC-CMCs [2] | mean IKs step current at +70 mV, whole-cell patch clamp, CHO cells stably expressing human IKs channels, 30 µg/ml IgG [2] | mean IKs tail current upon repolarization to -40 mV, whole-cell patch clamp, CHO cells stably expressing human IKs channels, 30 µg/ml IgG [2] | Kd [3] | Kd [4] | IKs step current at +70 mV versus control, CHO cells stably expressing human IKs, 30 µg/ml recombinant antibody [2] | IKs tail current versus control, CHO cells stably expressing human IKs, 30 µg/ml recombinant antibody [2]
B1 | 9.02 nM | 0.00082 s⁻¹ | 90900 M⁻¹ s⁻¹ | 5.7 µg/mL | 1.6 fold | 1.5 fold | 3.7 nM | ~4 nM | – | –
B2 | – | – | – | – | – | – | – | – | 1.6 fold | 1.5 fold

From patent US20240368272A1 (UNIVERSITY OF BERN, published 2024)
